In patent US20080241166A1:

Molecular target: hen egg lysozyme (hen) (UniProt P00698)
Experiment: ELISA on coated HEL (3 mg/ml); detection via the myc tag with 9e10 and anti mouse IgG-HRP

Chain of hen egg lysozyme (hen) (P00698 19-147): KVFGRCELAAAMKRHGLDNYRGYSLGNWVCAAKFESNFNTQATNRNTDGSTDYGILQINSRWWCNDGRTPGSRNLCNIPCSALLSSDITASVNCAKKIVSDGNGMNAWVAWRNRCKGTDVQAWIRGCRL

B1: VHCκ chain expressed alone (TAR2-5-Cκ) (protein, not shown: small tags and cut ends)
chain: EVQLLESGGGLVQPGGSLRLSCAASGFTFDLYNMFWVRQAPGKGLEWVSFISQTGRLTWYADSVKGRFTISRDNSKNTLYLQMNSLRAEDTAVYYCAKTLEDFDYWGQGTLVTVSS
Question: For B1, which ELISA signal (background) is on record?
Answer: 0.069
